From paper PMC7921117, “Structural characterization of the microbial enzyme urocanate reductase mediating imidazole propionate production” (Nature Communications, 2021)

Target: the molecule itself
Assay: elution peak in chromatography during purification; purification of His-tagged UrdA′; the sentence follows the HisTrap HP imidazole gradient; one large asymmetrical peak

B1: two-domain urocanate reductase UrdA′ (clamp domain and FAD-binding domain) from Shewanella oneidensis MR-1 (domain or fragment, Shewanella oneidensis (strain MR-1), UniProt Q8CVD0 130-582, looked up)
chain: EYTYDVVIIGSGGAGFSAGLEAIAAGRSAVIIEKMPIIGGNSLISGAEMNVAGSWVQKNMGITDSKELFISDTLKGGDFKGDPEMVKTMVDNAVGAAEWLRDYVKVEFYPDQLFQFGGHSVKRALIPKGHTGAEVISKFSIKADEVGLPIHTNTKAEKLIQDQTGRIVGVEAAHNGKTITYHAKRGVVIATGGFSSNMEMRKKYNPELDERYGSTGHAGGTGDGIVMAEKIHAAAKNMGYIQSYPICSPTSGAIALIADSRFFGAVLINQKGERFVEELERRDVISHAILAQPGRYTYVLWNQDIENVAHTVEMHQGELKEFTKDGLMYKVDTLEEAAKVFNIPEDKLLSTIKDVNHYAATGKDEAFNHRSGLVDLSKGPYWILKATPSVHHTMGGLVVDTRTRVLDEQGKVIPGLFAAGEVTGLTHGTNRLGGNAYTDIIVYGRIAGQEAAK
notes: Synthetic gene in pET-24a(+); The main peak fraction, mostly monomeric, was used for further experiments; also called UrdA′wt; Two-domain WT; source: E. coli TUNER (DE3), purified (HisTrap HP; size-exclusion chromatography before crystallization); not shown: 6xHis, C-terminal, kept
  binding result: binds
